# Target: the molecule itself
# Experiment: SDS-resistant dimer on SDS-PAGE with western blot
Protein,binding result,stoichiometry N
"ΔN(12)-YqjD (domain or fragment, E. coli, UniProt P64581 13-101, looked up) ELKSLSDTLEEVLSSSGEKSKEELSKIRSKAEQALKQSRYRLGETGDAIAKQTRVAAARADEYVRENPWTGVGIGAAIGVVLGVLLSRR",binds,–
"YqjD (wild type, full-length, N-terminal Xpress-His6-tag) (natural protein, E. coli, UniProt P64581 1-101, looked up) MSKEHTTEHLRAELKSLSDTLEEVLSSSGEKSKEELSKIRSKAEQALKQSRYRLGETGDAIAKQTRVAAARADEYVRENPWTGVGIGAAIGVVLGVLLSRR",–,2
"IAKQTRVAAARADEYVRENPWTGVGIGAAIGVVLGVLLSRR (domain or fragment, E. coli, UniProt P64581 61-101, looked up) [ΔN(60)-YqjD]",binds,–
"ΔN(30)-YqjD (domain or fragment, E. coli, UniProt P64581 31-101, looked up) KSKEELSKIRSKAEQALKQSRYRLGETGDAIAKQTRVAAARADEYVRENPWTGVGIGAAIGVVLGVLLSRR",binds,–
"ΔN(45)-YqjD (domain or fragment, E. coli, UniProt P64581 46-101, looked up) ALKQSRYRLGETGDAIAKQTRVAAARADEYVRENPWTGVGIGAAIGVVLGVLLSRR",binds,–

# Reference: paper doi:10.1101/2024.08.16.608256 (bioRxiv, 2024)
